# Data: the supplement of paper PMC10126150
# ± gives the standard deviation of the averaged measurements.
# System: ATP
# Test: switch fluorescence ratio, 500 uM ATP over buffer (Cy3 cluster intensity, sum of 5 cycles each) (fold (ratio)); higher = stronger signal-on switching upon ATP binding; sequences stand for … in TCGTCGGCAGCGTCAGATGTGTATAAGAGACAGTTTTTTTTTTTTTTTTTTTTTTTTT…TC
# Settings: aptamer strand: ATP DNA aptamer (quencher-CACCTGGGGGAGTATTGCGGAGGAAGG + anchor), 100 nM annealed; ATP concentration: 500 uM
# How it was run: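 For every switch-domain sequence, the fluorescence ratio is the mean of per-cluster values, each being summed target-cycle Cy3 intensity over summed buffer-cycle Cy3 intensity. Clusters outside 100-1000 RFU were excluded. On a modified Illumina MiSeq flow-cell, the Cy3-labelled switching-strand clusters were annealed to 100 nM quencher-labelled ATP aptamer, imaged in selection buffer and then after 15 min with 500 uM ATP at 22 °C. Five such cycles were run, with NaOH stripping and re-annealing between them.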
# 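Also: ATP exposure 15 min at 22 °C before imaging.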
row,Sequence,switch fluorescence ratio
1,AGATACGGTG,0.983 ± 0.044
2,AGATAGAGTG,0.996 ± 0.02
3,AGATAGGGGA,1.01 ± 0.025
4,AGATAGGGGT,1.021 ± 0.008
5,AGATAGGTGT,1.079 ± 0.003
6,AGATATGGCT,0.979 ± 0.038
7,AGATATTACG,1.03 ± 0.037
8,AGATATTATT,0.9771 ± 0.0015
9,AGATCCCGCG,1.03 ± 0.032
10,AGATCTGGAG,0.9982 ± 0.0069
11,AGATGAGATA,1.005 ± 0.0037
12,AGATGAGGCG,1 ± 0.068
13,AGATGCAGTA,1.01 ± 0.028
14,AGATGGGAAT,1.04 ± 0.0028
15,AGATGGGTGG,1.01 ± 0.025
16,AGATGGGTGT,1.04 ± 0.041
17,AGATGGGTTT,1.01 ± 0.044
18,AGATGTGGGA,1 ± 0.013
19,AGATGTGTGG,0.989 ± 0.053
20,AGATTAGTAT,1.02 ± 0.056
21,AGATTATGTT,1.01 ± 0.029
22,AGATTCACTT,1.01 ± 0.013
23,AGATTCAGAA,0.947 ± 0.037
24,AGATTCCGCT,1.108 ± 0.011
25,AGATTCGGTC,1 ± 0.018

row,Sequence,switch fluorescence ratio
1,AGATTGGAGG,0.957 ± 0.028
2,AGATTTAGGG,0.986 ± 0.017
3,AGATTTATCG,0.9781 ± 0.0027
4,AGATTTCATA,0.985 ± 0.02
5,AGATTTGGGC,1.02 ± 0.031
6,AGATTTTTTG,0.9926 ± 0.0073
7,AGCAACATTG,1.01 ± 0.06
8,AGCAAGGGGA,1.07 ± 0.058
9,AGCAATTGCT,1.05 ± 0.023
10,AGCACGCTGG,1.029 ± 0.0042
11,AGCACGTTCT,0.993 ± 0.1
12,AGCACTTTTC,1.0192 ± 0.00082
13,AGCAGAAATC,1.07 ± 0.039
14,AGCAGACGGC,1.03 ± 0.024
15,AGCAGGGGTG,1.09 ± 0.013
16,AGCAGTGACT,1.13 ± 0.036
17,AGCAGTGTGC,0.9981 ± 0.0027
18,AGCATACGTT,1.16 ± 0.051
19,AGCATATCGT,1.04 ± 0.033
20,AGCATATGAA,1.02 ± 0.071
21,AGCATGGTTT,1.02 ± 0.029
22,AGCATGTGGC,0.991 ± 0.016
23,AGCATTACCG,1.165 ± 0.0045
24,AGCATTATCT,1.09 ± 0.03
25,AGCATTTATA,0.981 ± 0.016

row,Sequence,switch fluorescence ratio
1,AGCATTTTTG,1.024 ± 0.0035
2,AGCCAGAGAC,1.07 ± 0.036
3,AGCCAGATTC,0.975 ± 0.036
4,AGCCAGGATT,0.9722 ± 0.0083
5,AGCCATTATT,0.976 ± 0.02
6,AGCCCCGGCT,0.967 ± 0.045
7,AGCCCGAGGG,0.989 ± 0.065
8,AGCCCGTTTG,0.964 ± 0.053
9,AGCCGCCGGG,1.04 ± 0.013
10,AGCCGTGATG,1.06 ± 0.048
11,AGCCTTAATT,1 ± 0.025
12,AGCCTTACGT,1.115 ± 0.0039
13,AGCCTTTACA,0.994 ± 0.011
14,AGCGAATTTT,0.999 ± 0.017
15,AGCGAGGGGA,1.04 ± 0.02
16,AGCGAGTGGC,0.991 ± 0.03
17,AGCGATAGTA,1.07 ± 0.019
18,AGCGATGCGG,0.9867 ± 0.0023
19,AGCGATTATA,0.991 ± 0.0037
20,AGCGATTTTT,1.01 ± 0.053
21,AGCGCAATGA,3 ± 0.32
22,AGCGCATGTG,0.996 ± 0.013
23,AGCGGAACCC,1.03 ± 0.023
24,AGCGGATTGT,1 ± 0.02
25,AGCGGCATGT,0.978 ± 0.077

row,Sequence,switch fluorescence ratio
1,AGCGGCCTG,1.01 ± 0.056
2,AGCGGGGGAT,1.01 ± 0.027
3,AGCGGGGGGT,1.03 ± 0.033
4,AGCGGGGGTA,1.01 ± 0.034
5,AGCGGGGTTC,1.023 ± 0.0049
6,AGCGGGTAGA,0.986 ± 0.02
7,AGCGGGTTAC,1.09 ± 0.06
8,AGCGGGTTCG,1 ± 0.054
9,AGCGGTATGC,0.9804 ± 0.0073
10,AGCGGTTATT,1.004 ± 0.0044
11,AGCGGTTTTC,0.994 ± 0.033
12,AGCGTAGAGC,1.03 ± 0.04
13,AGCGTCATGC,1.04 ± 0.048
14,AGCGTCGTTC,1.03 ± 0.023
15,AGCGTTTCCG,0.99 ± 0.028
16,AGCGTTTCGC,0.996 ± 0.013
17,AGCTACGTCG,0.942 ± 0.034
18,AGCTACGTTT,0.9963 ± 0.0053
19,AGCTAGCGAT,1.02 ± 0.034
20,AGCTAGTCGC,1.01 ± 0.027
21,AGCTATTAAG,0.9947 ± 0.0065
22,AGCTGAAGTT,0.989 ± 0.036
23,AGCTGACGCT,1.02 ± 0.025
24,AGCTGACTGC,1.01 ± 0.025
25,AGCTGATTGC,1 ± 0.02

row,Sequence,switch fluorescence ratio
1,AGCTGCGACG,0.992 ± 0.044
2,AGCTGGGAAG,0.982 ± 0.021
3,AGCTGGGGGA,1.05 ± 0.015
4,AGCTGGTGGC,1.01 ± 0.078
5,AGCTGTGACC,1 ± 0.012
6,AGCTGTTTC,1 ± 0.018
7,AGCTTAAATT,0.987 ± 0.018
8,AGCTTAGTTT,0.975 ± 0.028
9,AGCTTCAAAT,1 ± 0.017
10,AGCTTCATTC,1.06 ± 0.057
11,AGCTTCTAAA,0.976 ± 0.022
12,AGCTTGGATA,1.017 ± 0.01
13,AGCTTTATGT,1.02 ± 0.04
14,AGCTTTTTGA,0.966 ± 0.025
15,AGGAAAAAGC,1.02 ± 0.028
16,AGGAAACGGG,0.978 ± 0.018
17,AGGAAATTAT,1.01 ± 0.029
18,AGGAACGGGT,0.9838 ± 0.0027
19,AGGAAGAAAG,1.042 ± 0.0089
20,AGGAAGTCTG,1.03 ± 0.035
21,AGGAAGTGGG,0.959 ± 0.028
22,AGGAATAGCG,1.021 ± 0.0061
23,AGGAATCCGG,1.03 ± 0.026
24,AGGAATGGTC,1.02 ± 0.051
25,AGGAATGTTT,0.985 ± 0.0099

row,Sequence,switch fluorescence ratio
1,AGGAATTACG,1.05 ± 0.041
2,AGGAATTGAA,0.982 ± 0.028
3,AGGACCATGT,1.01 ± 0.02
4,AGGACGGGA,1.03 ± 0.035
5,AGGACGGGAT,1.06 ± 0.056
6,AGGACGTCCA,0.989 ± 0.02
7,AGGACTGGGG,1.01 ± 0.037
8,AGGACTGTGT,1.02 ± 0.04
9,AGGACTTGTC,0.951 ± 0.01
10,AGGAGAGACC,0.9848 ± 0.0029
11,AGGAGCGGTA,1.1 ± 0.12
12,AGGAGCGGTT,1.02 ± 0.061
13,AGGAGCTTGA,1.03 ± 0.018
14,AGGAGGAGGA,1.07 ± 0.065
15,AGGAGGAGGC,0.789 ± 0.23
16,AGGAGGCGAG,0.9905 ± 0.0088
17,AGGAGGGATG,0.985 ± 0.022
18,AGGAGGGGGG,1.01 ± 0.039
19,AGGAGGGGGT,0.991 ± 0.033
20,AGGAGGTTAT,1.01 ± 0.013
21,AGGAGTACGT,0.988 ± 0.013
22,AGGAGTACTT,1.02 ± 0.019
23,AGGAGTGGTA,0.999 ± 0.013
24,AGGAGTTTAG,0.9867 ± 0.0093
25,AGGATAACCC,1.018 ± 0.0064

row,Sequence,switch fluorescence ratio
1,AGGATAGTTG,0.982 ± 0.038
2,AGGATCAACG,0.984 ± 0.034
3,AGGATCGGTA,0.987 ± 0.022
4,AGGATCTTGT,0.9943 ± 0.0016
5,AGGATGCAGA,1.01 ± 0.024
6,AGGATGGGG,0.9741 ± 0.0069
7,AGGATGGGTG,0.991 ± 0.021
8,AGGATGGTTG,1 ± 0.021
9,AGGATGTGCT,0.9655 ± 0.006
10,AGGATTATGT,1.01 ± 0.035
11,AGGATTGGGT,0.99 ± 0.017
12,AGGATTTGAG,1 ± 0.013
13,AGGATTTGGT,0.984 ± 0.031
14,AGGATTTTAG,1.002 ± 0.0049
15,AGGATTTTTG,1.02 ± 0.021
16,AGGCAAAGCA,1.05 ± 0.073
17,AGGCAAAGGC,1.06 ± 0.036
18,AGGCAGACCG,1.03 ± 0.07
19,AGGCAGATGG,0.998 ± 0.021
20,AGGCAGTGGG,0.998 ± 0.028
21,AGGCATCAAC,1.02 ± 0.013
22,AGGCATGCTG,0.98 ± 0.062
23,AGGCCCCCGA,1.02 ± 0.066
24,AGGCCGAGTC,1.02 ± 0.054
25,AGGCCGGGTG,1.35 ± 0.052

row,Sequence,switch fluorescence ratio
1,AGGCCGTGGC,0.968 ± 0.035
2,AGGCCTAACG,0.995 ± 0.01
3,AGGCCTCGCA,1.03 ± 0.039
4,AGGCCTGGG,1 ± 0.016
5,AGGCCTTCGA,1.003 ± 0.0083
6,AGGCGCAATT,1.81 ± 0.94
7,AGGCGCAGGG,0.9982 ± 0.0089
8,AGGCGCGCGG,0.9507 ± 0.0057
9,AGGCGCTAT,1.04 ± 0.021
10,AGGCGGATGG,0.9853 ± 0.0062
11,AGGCGGCAGC,0.982 ± 0.02
12,AGGCGGCCTG,0.982 ± 0.016
13,AGGCGGCTTC,1.03 ± 0.014
14,AGGCGGGGTA,0.9847 ± 0.0089
15,AGGCGGTGCG,1.02 ± 0.03
16,AGGCGGTGGC,1.02 ± 0.11
17,AGGCGTGAGG,1.01 ± 0.049
18,AGGCTAAAG,0.974 ± 0.01
19,AGGCTATCCC,0.992 ± 0.033
20,AGGCTCACAA,1.07 ± 0.03
21,AGGCTCCGAG,1.03 ± 0.011
22,AGGCTCCTCG,1.039 ± 4.4e-05
23,AGGCTCTTTG,1.01 ± 0.04
24,AGGCTGAGCG,1.01 ± 0.022
25,AGGCTGTTCT,0.991 ± 0.059
